Values belong to the molecule of their own block, whether it stands above or below them.
Tested on: IgE antibodies from soybean-allergic patients
Test: Immunoblotting of two-dimensional electrophoresis pattern of soybean proteins with patient serum
Assay type: binding, human
Details: spot in 2D electrophoresis gel of soybean proteins; patient serum compared with healthy subject serum
Summary of the method: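 Soybean proteins were separated by 2-D electrophoresis, transferred to PVDF and blocked in 5% skim milk/PBST. Blots were probed with 3% serum from soybean-allergic patients or healthy subjects for 1 h at room temperature, then anti-human IgE-HRP (1:2500). Chemiluminescent substrate was used, with fluorescent image scanning.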

specific binding to IgE antibodies from soybean-allergic patients: specific binding
B1: transketolase, chloroplastic (protein)
chain: MASSTSSISLSQALLRPTTTSLPSSSSSLRLTPTLRPTPPALSLRRRLTTSIRAAASVKTVEKATADAALVEKSVNTIRFLAIDAVEKANSGHPGLPMGCAPMGHVLYDETMKYNPKNPFWFNRDRFVLSAGHGCMLQYALLHLAGFDSVKEEDLREFRQWGSRTPGHPENFETPGIEVTTGPLGQGIANAVGLALAEKHLAARYNKPDNEIVDHYTYAILGDGCQMEGIANEACSLAGHWGLGKLIAFYDDNHISIDGNTEIAFTESVDSRFEGLGWHVIWVKNGNNGYDDIRAAIKEAKAVKDKPTLIKVTTTIGYGSPNKANSYSVHGSALGAKEVDATRQNLGWSHEPFHVPEDVKKHWSRHTPEGAALEAEWNAKFAEYEKKYKEEAAELKSIINGEFPAGWEKALPTYTPESPADATRNLSQTNLNALAKVLPGLLGGSADLASSNMTLLKMFGDFQKDTPAERNVRFGVREHGMGAICNGIALHSPGLIPYCATFFVFTDYMRGAIRLSALSEAGVIYVMTHDSIGLGEDGPTHQPIEHLASFRAMPNILMLRPADGNETAGAYKVAVLNRKRPSILALSRQKLPQLPGTSIEGVEKGGYTISDNSTGNKPDVILIGTGSELEIAAKAADDLRKEGKAVRVVSLVSWELFDEQSEAYKESVFPAAVSARVSIEAGSTFGWEKIVGAKGKAIGIDRFGASAPAGRIYKEFGITKEAVVAAAKELI

specific binding to IgE antibodies from soybean-allergic patients: specific binding
B2: chaperonin CPN60-2, mitochondrial (protein)
chain: MYRFATSLASKARIARSSTQQIGSRVTWNRNYAAKDIKFGVEARALMLKGVEELADAVKVTMGPKGRNVVIEQSFGAPKVTKDGVTVAKSIEFKDKVKNIGASLVKQVANATNDVAGDGTTCATILTKAIFTEGCKSVAAGMNAMDLRRGINMAVDAVVTNLKSRARMISTSEEIAQVGTISANGEREIGELIAKAMEKVGKEGVITISDGKTLYNELEVVEGMKLDRGYISPYFITNQKNQKCELEDPLIIIHEKKISSINAIVKVLELALKRQRSLLIVAEDVESDALATLILNKLRAGIKVCAIKAPGFGENRKSGLQDLAVLTGGQLITEELGLNLEKVDLDLFGSCKKITISKDDTVILDGAGDKKAIEERCEQIRSAIENSTSDYDKEKLQERLAKLSGGVAVLKIGGASEAEVGEKKDRVTDALNATKAAVEEGIVPGGGVALLYASSELDKLQTANFDQKIGVQIIQNALKTPVHTIASNAGVEGAVVVGKLLEQNDPDLGYDAAKGEYVDMVKTGIIDPLKVIRTALVDAASVSSLMTTTEAVVSELPKDDKDVPAMGGGMGGMDY
modifications: Glycine max
notes: spot also identified as chaperonin CPN60-2, mitochondrial-like isoform X1

Reference: patent US20250262297A1, “ALLERGY ANTIGEN AND EPITOPE THEREOF” (HOYU CO., LTD., priority 2017, published 2025)
